{"source": "paper PMC4106346", "about": "“The Oligomeric States of the Purified Sigma-1 Receptor Are Stabilized by Ligands” (The Journal of Biological Chemistry, 2014)", "parents": {"B1": {"name": "TM2 domain of in the TOXCAT construct (between MBP and ToxR) [guinea pig] / itself (parent)", "chain": "WVFVNAGGWMGAMCLLHASL"}}, "data": [{"variants_of": "B1", "test": "TOXCAT", "conditions": "with itself;; read off a plot", "units": {"response": "%GpA"}, "values": [{"variant": "chain 1 G7I", "response": 94}, {"variant": "chain 1 G7L", "response": 77}, {"variant": "chain 1 G8L", "response": 89}, {"variant": "chain 1 G8I", "response": 100}, {"variant": "chain 1 G7L G8L", "response": -2.7}, {"variant": "chain 1 H17A", "response": 20}]}]}
